Experiment [1] deals with T1, human OT7T175 (metastin receptor) (human, UniProt Q969F8 1-398). Briefly: cell-based or functional assay.
Experiment [2] addresses T1, human OT7T175 (metastin receptor). Briefly: FMAT competition with Cy-5-labeled metastin (40-54), hOT7T175-expressed CHO cells. The protocol:
h0T7T175-Expressed CHO cells were cultured in MEM-α medium (nucleic acid-free) containing 10% dialyzed serum. The medium was removed and the adherent cells were washed with PBS. Then, PBS containing 5 mM EDTA was added and the cells were scraped from a flask with a cell scraper. […] To each well of a 96-Well Black Clear Bottom Plate (Applied Biosystems, Inc.), 10 μL of assay buffer containing 1% dimethylsulfoxide was added to examine total binding, 10 μL of 10 μM non-labeled peptide (having the same amino acid sequence as that of the labeled one) solution diluted with assay buffer to examine non-specific binding, and 10 μL of a test compound diluted with assay buffer to examine the binding inhibition activity of the test compound, respectively. Furthermore, 90 μL each of the cell suspension was dispensed to each well. […] The specific binding is a value obtained by subtracting the non-specific binding from the total binding.

Experiment [3] shares this target. Nature of the experiment: cell-based or functional assay. This is another data set of the same source.

Where two headings read alike, the source gives them in different places. Square brackets hold non-standard residues; d marks the D form. Ends that are not written are not given here. * marks the point of attachment. 2‑(indol-3-yl)ethylcarbamoyl = O=C(NCCc1c[nH]c2ccccc12)*; Cyclohexanecarbonyl = O=C(C1CCCCC1)*; Arg(Me) = CNC(=N)NCCC[C@H](N)C(=O)O; d3Pal = N[C@H](Cc1cccnc1)C(=O)O; Cha = N[C@@H](CC1CCCCC1)C(=O)O; amidino = N=C(N)*; azaGly = NNC(=O)O

T1 sequence (Q969F8 whole entry L364H): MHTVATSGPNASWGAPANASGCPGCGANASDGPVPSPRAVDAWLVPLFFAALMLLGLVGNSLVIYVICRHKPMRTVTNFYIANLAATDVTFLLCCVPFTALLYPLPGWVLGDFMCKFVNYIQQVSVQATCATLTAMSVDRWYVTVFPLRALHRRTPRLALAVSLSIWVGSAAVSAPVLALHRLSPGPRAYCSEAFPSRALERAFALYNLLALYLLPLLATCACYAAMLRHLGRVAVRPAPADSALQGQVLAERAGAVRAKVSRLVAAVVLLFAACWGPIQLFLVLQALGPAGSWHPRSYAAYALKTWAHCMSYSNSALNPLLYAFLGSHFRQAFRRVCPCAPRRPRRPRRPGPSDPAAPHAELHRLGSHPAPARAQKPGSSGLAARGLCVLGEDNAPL

B1: Compound No. 204: [D-Tyr1, Ala7, Arg(Me)9]MS10 (peptide)
peptide: [dY]NWNSFAL[Arg(Me)]F-NH2
modifications: N-terminus assumed
SMILES: CNC(=N)NCCC[C@H](NC(=O)[C@H](CC(C)C)NC(=O)[C@H](C)NC(=O)[C@H](Cc1ccccc1)NC(=O)[C@H](CO)NC(=O)[C@H](CC(N)=O)NC(=O)[C@H](Cc1c[nH]c2ccccc12)NC(=O)[C@H](CC(N)=O)NC(=O)[C@H](N)Cc1ccc(O)cc1)C(=O)N[C@@H](Cc1ccccc1)C(N)=O
notes: printed structure is the same as that of Compound No. 173
As for B1, the “intracellular Ca ion level-increasing activity (FLIPR)” value in experiment [1] is 5 specific activity to metastin (1-54). Moreover, the IC50 (as a rule, the concentration needed to halve the response being measured) in experiment [2] came to 680 nM.

For [dY]NWTSFGL[Arg(Me)]F-NH2 [Compound No. 208: [D-Tyr1,Thr4,Arg(Me)9]MS10], the “intracellular Ca ion level-increasing activity (FLIPR)” value in experiment [1] was 1 specific activity to metastin (1-54). In experiment [2], the half-maximal inhibitory concentration (IC50) was 830 nM.

B2: Compound No. 211: [D-Tyr1,Thr5,Arg(Me)9]MS10 (peptide)
peptide: [dY]NWNTFGL[Arg(Me)]F-NH2
modifications: N-terminus assumed
SMILES: CNC(=N)NCCC[C@H](NC(=O)[C@H](CC(C)C)NC(=O)CNC(=O)[C@H](Cc1ccccc1)NC(=O)[C@@H](NC(=O)[C@H](CC(N)=O)NC(=O)[C@H](Cc1c[nH]c2ccccc12)NC(=O)[C@H](CC(N)=O)NC(=O)[C@H](N)Cc1ccc(O)cc1)[C@@H](C)O)C(=O)N[C@@H](Cc1ccccc1)C(N)=O
Regarding B2, the “intracellular Ca ion level-increasing activity (FLIPR)” value in experiment [1] was 10 specific activity to metastin (1-54). The 50% inhibitory concentration (IC50) in experiment [2] came to 44 nM.

Take [dY]NWNSFGV[Arg(Me)]F-NH2 [Compound No. 213: [D-Tyr1,Val8,Arg(Me)9]MS10]: in experiment [1], the “intracellular Ca ion level-increasing activity (FLIPR)” value was 2 specific activity to metastin (1-54). This molecule also yielded an IC50 in experiment [2] of 190 nM.

B3: Compound No. 212: [D-Tyr1,Ala5,Arg(Me)9]MS10 (peptide)
peptide: [dY]NWNAFGL[Arg(Me)]F-NH2
modifications: N-terminus assumed
SMILES: CNC(=N)NCCC[C@H](NC(=O)[C@H](CC(C)C)NC(=O)CNC(=O)[C@H](Cc1ccccc1)NC(=O)[C@H](C)NC(=O)[C@H](CC(N)=O)NC(=O)[C@H](Cc1c[nH]c2ccccc12)NC(=O)[C@H](CC(N)=O)NC(=O)[C@H](N)Cc1ccc(O)cc1)C(=O)N[C@@H](Cc1ccccc1)C(N)=O
As to B3, the “intracellular Ca ion level-increasing activity (FLIPR)” value in experiment [1] is 10 specific activity to metastin (1-54). In addition, the IC50 in experiment [2] is 36 nM.

B4: Compound No. 206: [D-Tyr1,Ile3,Arg(Me)9]MS10 (peptide)
peptide: [dY]NINSFGL[Arg(Me)]F-NH2
modifications: N-terminus assumed
SMILES: CC[C@H](C)[C@H](NC(=O)[C@H](CC(N)=O)NC(=O)[C@H](N)Cc1ccc(O)cc1)C(=O)N[C@@H](CC(N)=O)C(=O)N[C@@H](CO)C(=O)N[C@@H](Cc1ccccc1)C(=O)NCC(=O)N[C@@H](CC(C)C)C(=O)N[C@@H](CCCNC(=N)NC)C(=O)N[C@@H](Cc1ccccc1)C(N)=O
As to B4, the “intracellular Ca ion level-increasing activity (FLIPR)” value in experiment [1] is 10 specific activity to metastin (1-54). The same molecule gave an IC50 in experiment [2] of 85 nM.

B5: Compound No. 210: [D-Tyr1,Ala4,Arg(Me)9]MS10 (peptide)
peptide: [dY]NWASFGL[Arg(Me)]F-NH2
modifications: N-terminus assumed
SMILES: CNC(=N)NCCC[C@H](NC(=O)[C@H](CC(C)C)NC(=O)CNC(=O)[C@H](Cc1ccccc1)NC(=O)[C@H](CO)NC(=O)[C@H](C)NC(=O)[C@H](Cc1c[nH]c2ccccc12)NC(=O)[C@H](CC(N)=O)NC(=O)[C@H](N)Cc1ccc(O)cc1)C(=O)N[C@@H](Cc1ccccc1)C(N)=O
With B5, the “intracellular Ca ion level-increasing activity (FLIPR)” value in experiment [1] was 1 specific activity to metastin (1-54). The half-inhibitory concentration (IC50) in experiment [2] is 730 nM.

B6: Compound No. 205: [D-Tyr1,Thr3,Arg(Me)9]MS10 (peptide)
peptide: [dY]NTNSFGL[Arg(Me)]F-NH2
modifications: N-terminus assumed
SMILES: CNC(=N)NCCC[C@H](NC(=O)[C@H](CC(C)C)NC(=O)CNC(=O)[C@H](Cc1ccccc1)NC(=O)[C@H](CO)NC(=O)[C@H](CC(N)=O)NC(=O)[C@@H](NC(=O)[C@H](CC(N)=O)NC(=O)[C@H](N)Cc1ccc(O)cc1)[C@@H](C)O)C(=O)N[C@@H](Cc1ccccc1)C(N)=O
Take B6: the “intracellular Ca ion level-increasing activity (FLIPR)” value in experiment [1] is 10 specific activity to metastin (1-54). The molecule further displayed an IC50 in experiment [2] of 260 nM.

For the molecule [dY][dW]NSF[azaGly]L[Arg(Me)]F-NH2 [Compound No. 242: des(1)-[D-Tyr2,D-Trp3,AzaGly7,Arg(Me)9]MS10], the “intracellular Ca ion level-increasing activity (FLIPR)” value in experiment [1] is 2 specific activity to metastin (1-54). The IC50 in experiment [2] amounted to 70 nM.

B7: Compound No. 290: [D-Pya(3)1,D-Asn2,Cha3,AzaGly7,Arg(Me)9]MS10 (peptide)
peptide: [d3Pal][dN][Cha]NSF[azaGly]L[Arg(Me)]F-NH2
modifications: N-terminus assumed
SMILES: CNC(=N)NCCC[C@H](NC(=O)[C@H](CC(C)C)NC(=O)NNC(=O)[C@H](Cc1ccccc1)NC(=O)[C@H](CO)NC(=O)[C@H](CC(N)=O)NC(=O)[C@H](CC1CCCCC1)NC(=O)[C@@H](CC(N)=O)NC(=O)[C@H](N)Cc1cccnc1)C(=O)N[C@@H](Cc1ccccc1)C(N)=O
On to B7, for which the “intracellular Ca ion level-increasing activity (FLIPR)” value in experiment [3] was 1 specific activity to metastin (1-54). The same molecule showed an IC50 in experiment [2] of 1.4 nM.

B8: Compound No. 278: des(1-3)-Cyclohexanecarbonyl-[AzaGly7, Arg(Me)9]MS10 (peptide)
peptide: Cyclohexanecarbonyl-NSF[azaGly]L[Arg(Me)]F-NH2
SMILES: CNC(=N)NCCC[C@H](NC(=O)[C@H](CC(C)C)NC(=O)NNC(=O)[C@H](Cc1ccccc1)NC(=O)[C@H](CO)NC(=O)[C@H](CC(N)=O)NC(=O)C1CCCCC1)C(=O)N[C@@H](Cc1ccccc1)C(N)=O
Regarding B8, the “intracellular Ca ion level-increasing activity (FLIPR)” value in experiment [3] was 2 specific activity to metastin (1-54). The molecule also came in with an IC50 in experiment [2] of 110 nM.

Turning to YNWNSXGLRF (D-Tyr1; Pya(2)6; Arg(Me)9; C-terminal amide) [Compound No. 281: [D-Tyr1,Pya(2)6,Arg(Me)9]MS10], in experiment [3], the “intracellular Ca ion level-increasing activity (FLIPR)” value is 0.5 specific activity to metastin (1-54). This molecule displayed an IC50 in experiment [2] of 230 nM.

B9: Compound No. 279: des(1-3)-2-(Indol-3-yl)ethylcarbamoyl-[AzaGly7,Arg(Me)9]MS10 (peptide)
peptide: {2‑(indol-3-yl)ethylcarbamoyl}-NSF[azaGly]L[Arg(Me)]F-NH2
SMILES: CNC(=N)NCCC[C@H](NC(=O)[C@H](CC(C)C)NC(=O)NNC(=O)[C@H](Cc1ccccc1)NC(=O)[C@H](CO)NC(=O)[C@H](CC(N)=O)NC(=O)NCCc1c[nH]c2ccccc12)C(=O)N[C@@H](Cc1ccccc1)C(N)=O
Regarding B9, in experiment [3], the “intracellular Ca ion level-increasing activity (FLIPR)” value was 5 specific activity to metastin (1-54). Moreover, in experiment [2], the concentration for half-maximal inhibition (IC50) is 29 nM.

B10: Compound No. 272: des(1-2)-Acetyl-[AzaGly7,Arg(Me)9]MS10 (peptide)
peptide: Ac-WNSF[azaGly]L[Arg(Me)]F-NH2
SMILES: CNC(=N)NCCC[C@H](NC(=O)[C@H](CC(C)C)NC(=O)NNC(=O)[C@H](Cc1ccccc1)NC(=O)[C@H](CO)NC(=O)[C@H](CC(N)=O)NC(=O)[C@H](Cc1c[nH]c2ccccc12)NC(C)=O)C(=O)N[C@@H](Cc1ccccc1)C(N)=O
As to B10, in experiment [3], the “intracellular Ca ion level-increasing activity (FLIPR)” value was 2 specific activity to metastin (1-54). The molecule also returned an IC50 in experiment [2] of 540 nM.

In the case of {n‑Hexanoyl}-NSF[azaGly]L[Arg(Me)]F-NH2 [Compound No. 277: des(1-3)-n-Hexanoyl-[AzaGly7,Arg(Me)9]MS10], the “intracellular Ca ion level-increasing activity (FLIPR)” value in experiment [3] is 2 specific activity to metastin (1-54). Moreover, the IC50 in experiment [2] amounted to 54 nM.

B11: Compound No. 273: des(1-2)-Amidino-[AzaGly7,Arg(Me)9]MS10 (peptide)
peptide: amidino-WNSF[azaGly]L[Arg(Me)]F-NH2
SMILES: CNC(=N)NCCC[C@H](NC(=O)[C@H](CC(C)C)NC(=O)NNC(=O)[C@H](Cc1ccccc1)NC(=O)[C@H](CO)NC(=O)[C@H](CC(N)=O)NC(=O)[C@H](Cc1c[nH]c2ccccc12)NC(=N)N)C(=O)N[C@@H](Cc1ccccc1)C(N)=O
With B11, in experiment [3], the “intracellular Ca ion level-increasing activity (FLIPR)” value was 5 specific activity to metastin (1-54). In experiment [2], this molecule displayed an IC50 of 300 nM.

Source of the values: patent publication US20060241051A1 (Takeda / Millennium, published 2006).
